# Biological target: fetuin
substance,measurement,value
recombinant protein of H5 hemagglutinin ectodomain (H5HA),absorbance at 450 nm,0.15 O.D. 450

# — patent publication US20190225979A1
